± gives the standard deviation.

A short description of the series: protein stability index of a GFP-peptide fusion (GPS, HEK-293T) (PSI 1-6); higher = more stable. To be noted: c terminus: a fixed tail appended.
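Note: 24-mer peptide tiles fused after GFP, lentivirally expressed, FACS-sorted into six equal bins by GFP/DsRed ratio, decoded by Illumina sequencing, PSI is the read-weighted mean bin number.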

Regarding GDGVPPRSLQDGTREGFGHSTSLK [LCOR], the protein stability index worked out at 5.08 ± 0.24 (treatment: DMSO) and 4.92 ± 0.22 (treatment: MLN4924 1 uM, 8 h).
With GDMNHEWIGNEWLPSLGLPQYRSY [PPFIA4], the protein stability index stood at 2.41 ± 0.73 (treatment: DMSO) and 2.8 ± 0.38 (treatment: MLN4924 1 uM, 8 h).
The corresponding values for GEGKLSKRLKHKDDSVMKATQQAR [C22orf31] are 4.64 ± 0.21 and 4.81 ± 0.22.
In the same order, the values of GEKPFKCHLCNYACRRRDALTGHL [IKZF1] are 2.2 ± 0.12 and 2.51 ± 0.53.
In the same order, the values of GELEDESLNRACHQQNKIKDLQKE [CEP70] are 5.3 ± 0.28 and 5.34 ± 0.24.
Take GFRLAEDGKRCRRKDVCKSTHHGC [MATN2]: the protein stability index by setting is: (treatment: DMSO) 3.99 ± 0.66; (treatment: MLN4924 1 uM, 8 h) 4.09 ± 0.42.
In the same order, the values of GGGGGGGGGGGGGGTSSNNSEEEE [ANKRD17] are 5.42 ± 0.23 and 5.41 ± 0.31.
In the same order, the values of GGKSGELEQEEERLSKEWEDSKRW [CHGA] are 5.3 ± 0.33 and 5.07 ± 0.32.
The corresponding values for GGLVVSAASLAGCLGALCENTCLL [TSPAN10] are 2.79 ± 0.57 and 2.67 ± 0.54.
Consider GGSCRAPSTYGGGLSVSSRFSSGG [KRT16], for which the protein stability index is, setting by setting: (treatment: DMSO) 2.97 ± 0.27; (treatment: MLN4924 1 uM, 8 h) 3.02 ± 0.15.
Turning to GIAVWNMDVSREEAPQWLESDSCQ [WDFY1], the protein stability index was 3.81 ± 0.081 (treatment: DMSO) and 3.74 ± 0.28 (treatment: MLN4924 1 uM, 8 h).
For GIDIMKTSFPGRGSIPEFFHIMKR [AASDHPPT], the protein stability index (treatment: DMSO) was 2.33 ± 0.59 and the protein stability index (treatment: MLN4924 1 uM, 8 h) is 2.501 ± 0.013.
GIFEESFIEERRQGLEQFINKIAG [SNX12]: the protein stability index reads like this: (treatment: DMSO) 2.98 ± 0.59; (treatment: MLN4924 1 uM, 8 h) 2.84 ± 0.32.
In the same order, the values of GKGEGPIWLDNLHCTGNEATLAAC [LOXL2] are 3.43 ± 0.23 and 3.52 ± 0.57.
The corresponding values for GLALCPEVQDLLEGCELPDLPSSL [SMG5] are 4.05 ± 0.25 and 3.96 ± 0.25.
As for GLEEADAEVSVISEADPQALLQAM [FBF1], the protein stability index by setting is: (treatment: DMSO) 5.06 ± 0.26; (treatment: MLN4924 1 uM, 8 h) 5.05 ± 0.15.
The corresponding values for GLEHAAAGGSSGTTARERPCVRPG [FBF1] are 4.96 ± 0.24 and 4.95 ± 0.2.
As for GLGHGSTSRGGPWVGTGLAAALAG [CPOX], the protein stability index amounted to 3.17 ± 0.21 (treatment: DMSO) and 3.21 ± 0.29 (treatment: MLN4924 1 uM, 8 h).
The corresponding values for GMDPERLKAFNMFVRLFVDENLDR [NOL4L] are 2.1 ± 0.42 and 2.39 ± 0.37.
GPEPKDKGSLPQPPITEVESQVFS [ZNF232]: the protein stability index reads like this: (treatment: DMSO) 5.51 ± 0.078; (treatment: MLN4924 1 uM, 8 h) 5.36 ± 0.23.
In the same order, the values of GPLPVKRGPPPRSGGPPPKRSAPS [RBMX] are 4.49 ± 0.39 and 4.85 ± 0.25.
In the same order, the values of GPRDPQLVPILIEAARNGKMKFVI [NSDHL] are 2.11 ± 0.44 and 2.38 ± 0.38.
In the same order, the values of GPSAEAYLLHPAAFHGAPSHLPTR [TBX6] are 3.31 ± 0.21 and 3.42 ± 0.16.
As to GRHYWEVEVGDKTHWAVGVCRDSV [TRIM39], the protein stability index runs as follows: (treatment: DMSO) 2.48 ± 0.41; (treatment: MLN4924 1 uM, 8 h) 2.42 ± 0.22.
In the same order, the values of GRLLFAGYNDYTINVWDVLKGSRV [GNB5] are 2.48 ± 0.58 and 2.18 ± 0.17.
The corresponding values for GRQKYKRRPEVDPLPFPGPFPAGP [ESRRA] are 3.87 ± 0.22 and 4.02 ± 0.26.
The corresponding values for GRVHLVKEKTAKHFFALKVMSIPD [PRKX] are 1.87 ± 0.52 and 2.38 ± 0.57.
Regarding GRYPLIQTLRQELSLPYLPSGTPE [CHIT1], the protein stability index is, setting by setting: (treatment: DMSO) 3.51 ± 0.26; (treatment: MLN4924 1 uM, 8 h) 3.47 ± 0.27.
As for GSDKCVFLKNTEVSSMECEKNLYW [CD69], the protein stability index was found to be 3.06 ± 0.26 (treatment: DMSO) and 3.12 ± 0.36 (treatment: MLN4924 1 uM, 8 h).

For the origin of these results see the supplement of paper PMC10567573.
